This is an account of results in article PMC12661925 (Structure (London, England : 1993), 2025).

For data set [1], the target named is T1, Cas1-2/3 integrase (StrepII-Cas1 + Cas2/3 fusion) (Pseudomonas aeruginosa PA14, UniProt Q02ML7;Q02ML8 1-324;1-1076).
T1 sequence 1: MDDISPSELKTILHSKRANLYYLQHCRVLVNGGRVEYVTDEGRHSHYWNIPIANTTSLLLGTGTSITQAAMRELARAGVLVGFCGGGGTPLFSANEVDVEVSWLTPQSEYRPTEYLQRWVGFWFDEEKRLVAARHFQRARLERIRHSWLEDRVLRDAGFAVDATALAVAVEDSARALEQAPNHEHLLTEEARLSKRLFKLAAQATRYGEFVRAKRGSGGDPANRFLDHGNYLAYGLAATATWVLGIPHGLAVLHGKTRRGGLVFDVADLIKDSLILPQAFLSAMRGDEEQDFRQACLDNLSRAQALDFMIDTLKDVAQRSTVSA
T1 sequence 2: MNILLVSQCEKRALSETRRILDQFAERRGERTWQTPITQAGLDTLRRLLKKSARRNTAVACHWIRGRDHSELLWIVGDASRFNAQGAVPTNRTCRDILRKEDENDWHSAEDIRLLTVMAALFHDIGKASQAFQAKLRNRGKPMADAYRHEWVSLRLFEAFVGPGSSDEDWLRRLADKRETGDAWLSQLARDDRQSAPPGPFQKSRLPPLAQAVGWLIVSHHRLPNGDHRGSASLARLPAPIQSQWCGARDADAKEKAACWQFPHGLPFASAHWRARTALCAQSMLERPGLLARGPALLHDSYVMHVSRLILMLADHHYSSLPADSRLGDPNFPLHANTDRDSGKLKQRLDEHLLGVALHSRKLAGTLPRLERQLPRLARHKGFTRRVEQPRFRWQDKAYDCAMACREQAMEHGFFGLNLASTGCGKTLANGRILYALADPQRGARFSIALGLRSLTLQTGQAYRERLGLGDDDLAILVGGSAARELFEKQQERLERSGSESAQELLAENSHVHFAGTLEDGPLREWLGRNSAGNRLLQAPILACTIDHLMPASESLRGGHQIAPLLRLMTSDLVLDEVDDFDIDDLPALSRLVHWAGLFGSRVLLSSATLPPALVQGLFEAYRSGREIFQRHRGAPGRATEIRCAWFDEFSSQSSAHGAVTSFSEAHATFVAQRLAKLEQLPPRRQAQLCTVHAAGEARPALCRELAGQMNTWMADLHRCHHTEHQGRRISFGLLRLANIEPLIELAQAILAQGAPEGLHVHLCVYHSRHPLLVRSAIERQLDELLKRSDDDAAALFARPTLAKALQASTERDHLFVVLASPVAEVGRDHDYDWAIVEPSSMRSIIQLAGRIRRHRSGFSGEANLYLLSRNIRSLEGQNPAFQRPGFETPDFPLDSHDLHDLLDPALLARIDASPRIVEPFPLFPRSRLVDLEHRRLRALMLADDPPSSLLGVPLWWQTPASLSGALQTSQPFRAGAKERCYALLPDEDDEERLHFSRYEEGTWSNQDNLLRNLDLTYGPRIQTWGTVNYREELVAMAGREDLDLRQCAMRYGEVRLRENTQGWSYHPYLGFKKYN
In words: cryo-EM.

Data set [2] deals with the molecule itself. Put plainly: cryo-EM structure.
The target in data set [3] is T1, Cas1-2/3 integrase (StrepII-Cas1 + …). Put plainly: cryo-EM. This is another data set of the same source.

Read-outs that look alike come from different tables or passages of the source.

B1: Figure 4 foreign DNA with PAM (34/34 nt) (dsDNA)
DNA 1: TACATGCTCTAGCAAAACGACTTGCACAACGAGG
DNA 2: CCATTAAGTGCAAGTCGTTTTGCTAGAGCTACAT
Consider B1, for which the binding result in data set [1] is on record as “binds”.

B2: Figures 4 and 5 foreign DNA without PAM (32/32 nt) (dsDNA)
DNA 1: TACATGCTCTAGCAAAACGACTTGCACAACGA
DNA 2: ATTAAGTGCAAGTCGTTTTGCTAGAGCTACAT
With B2, the binding result in data set [1] is listed as “binds”.

B3: Cas1 from the PA14 strain of Pseudomonas aeruginosa (type I-F), StrepII-tagged (enzyme, Pseudomonas aeruginosa (strain PA14))
chain: T1 sequence 1
Take B3: in data set [2], the binding result is reported as “binds”.

B4: Figure 3 foreign DNA, PAM on one strand (34/32 nt) (dsDNA)
DNA 1: AAAAACCTGGACTACTACAACCTTCGCTTTTTGG
DNA 2: TTTTTGCGAAGGTTGTAGTAGTCCAGGAAAAA
On to B4, for which, in data set [3], the binding result is “binds”.

B5: Cas2/3 fusion protein from the PA14 strain of Pseudomonas aeruginosa (type I-F), untagged (enzyme, Pseudomonas aeruginosa (strain PA14))
chain: T1 sequence 2
In the case of B5, the binding result in data set [2] was “binds”.
